According to patent JP2015180626A (dated 2015):

Target: RSV Fタンパク質 (RSV A2ウイルス) (respiratory syncytial virus (RSV) A2, UniProt P03420 26-574)
Experiment: cell-based or functional assay

RSV Fタンパク質 (RSV A2ウイルス), sequence (P03420 26-574): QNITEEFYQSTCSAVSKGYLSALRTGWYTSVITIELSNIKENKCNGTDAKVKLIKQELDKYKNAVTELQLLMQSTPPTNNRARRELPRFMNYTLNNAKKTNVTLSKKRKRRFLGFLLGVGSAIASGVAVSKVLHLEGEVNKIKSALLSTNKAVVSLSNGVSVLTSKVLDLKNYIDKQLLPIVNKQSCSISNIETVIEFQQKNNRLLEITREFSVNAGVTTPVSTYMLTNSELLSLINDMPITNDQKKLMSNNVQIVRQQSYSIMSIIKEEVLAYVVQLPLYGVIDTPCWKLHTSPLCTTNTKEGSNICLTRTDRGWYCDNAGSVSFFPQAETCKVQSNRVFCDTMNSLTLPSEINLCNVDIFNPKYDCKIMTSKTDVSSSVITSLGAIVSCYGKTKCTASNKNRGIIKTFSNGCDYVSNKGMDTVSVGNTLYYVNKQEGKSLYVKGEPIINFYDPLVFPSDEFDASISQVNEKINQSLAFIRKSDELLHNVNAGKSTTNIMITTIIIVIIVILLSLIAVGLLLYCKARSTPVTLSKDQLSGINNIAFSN

B1: AM22 (antibody, V domains shown)
VH: QVQLVQSGAEVKKPGATVKVSCKISGHTLIKLSIHWVRQAPGKGLEWMGGYEGEVDEIFYAQKFQHRLTVIADTATDTVYMELGRLTSDDTAVYFCGTLGVTVTEAGLGIDDYWGQGTLVTVSS
VL: EIVLTQSPGTLSLSPGERATLSCRASQIVSRNHLAWYQQKPGQAPRLLIFGASSRATGIPVRFSGSGSGTDFTLTINGLAPEDFAVYYCLSSDSSIFTFGPGTKVDFK
In the case of B1, the “RSV-A2ウイルスに対する中央値半分最大阻害濃度(IC 50 ) (neutralisation of RSV A2 on HEp2 cells)” value is reported as 1.15 ng/mL.
